What was measured:
Type in all cases: cell-based, Homo sapiens
Conditions in all cases: sodium (lithium also drives uptake)
CN(CC(=O)O)C(=N)N = assay: radiolabelled uptake kinetics in transfected HEK293 Flp-In cells
[1] = system: C[N+](C)(C)[C@@H](Cc1c[nH]c(=S)[nH]1)C(=O)[O-]; assay: as above
[2] = system: NCCC(=O)N[C@@H](Cc1cnc[nH]1)C(=O)O; assay: as above
[3] = system: C[N+](C)(C)C[C@H](O)CC(=O)[O-]; assay: radiolabelled uptake kinetics

SLC22A15 (Homo sapiens)
Km (CN(CC(=O)O)C(=N)N): 291 ± 124 µM | Km [1]: 354 ± 95 µM | Km [2]: 510 ± 175 µM | Km [3]: 99 ± 94 µM
